The target in the assay is human amyloid Aβ40 (human) (UniProt P05067).

“human plasminogen purified from the plasma of human donors (enzyme)” displayed an amount of Aβ40 left (Tricine-SDS-PAGE, quantitative scanning; solvent control defined as 100%) after 3 h at 37 °C in rabbit cerebrospinal fluid of 74.8%.
